Measured values as given in the supplement of paper PMC10567573.
± gives the standard deviation.

Assay: protein stability index of a GFP-peptide fusion (GPS, HEK-293T) (PSI 1-6); higher = more stable
[1] = treatment: DMSO, c terminus: a fixed tail appended
[2] = treatment: MLN4924 1 uM, 8 h, c terminus: a fixed tail appended
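Note: 24-mer peptide tiles fused after GFP, lentivirally expressed, FACS-sorted into six equal bins by GFP/DsRed ratio, decoded by Illumina sequencing, PSI is the read-weighted mean bin number.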

| Sequence | protein stability index [1] | protein stability index [2] | protein stability index (treatment: DMSO, c terminus: native) | protein stability index (treatment: MLN4924 1 uM, 8 h, c terminus: native) |
| --- | --- | --- | --- | --- |
| GISAKVFGATTNYGKDIVKACSLL [ZBED1] | 2.33 ± 0.4 | 2.26 ± 0.35 |  |  |
| GISNALHRLKLRLAIQEMVSLTSP [PPFIA4] | 2.46 ± 0.22 | 2.18 ± 0.13 |  |  |
| GKAAQAGVAVGDWVLSIDGENAGS [PDLIM7] | 3.97 ± 0.24 | 4.2 ± 0.42 |  |  |
| GLAANGALQRLDLRNNQISHKGAE [LRRC45] | 4.23 ± 0.4 | 4.57 ± 0.18 |  |  |
| GLWGTTLTENTAENRELYIKTTLR [PKD2L1] | 3.19 ± 0.15 | 3.2 ± 0.17 |  |  |
| GMNGQMLCNLGKERFLELAPDFVG [ETS2] | 2.89 ± 0.32 | 2.91 ± 0.21 |  |  |
| GMRRKSLLTRKVICKSDAPTGDVL [GOLPH3] | 3.51 ± 0.18 | 3.53 ± 0.52 |  |  |
| GNEKSIIDCKFNAESQGCNHEEDA [LOXL2] | 5.65 ± 0.23 | 5.57 ± 0.47 |  |  |
| GPDHRLRLWRLFQTLDVNRDGGLC [SLC25A25] | 2.29 ± 0.11 | 2.23 ± 0.22 |  |  |
| GPMMKLKRHFVAQKYKKQIDHMYH [ACSBG2] | 2.1 ± 0.14 | 2.42 ± 0.37 |  |  |
| GPPHARISQHGDPLLSNTFTETNN [EMID1] | 4.31 ± 0.13 | 4.748 ± 0.028 |  |  |
| GQPAPVSMVPPSPAMAASKALGSD [SNAP91] | 5.02 ± 0.32 | 5.01 ± 0.18 |  |  |
| GQQSDTAQLELYQLQVESNSSQLL [SCARA5] | 4.12 ± 0.13 | 4.16 ± 0.15 |  |  |
| GRGNFPTLEITLKDIVQTVRSRLE [TENT5C] | 2.65 ± 0.36 | 2.31 ± 0.2 |  |  |
| GRLIQLSRDGATGHVLLTDSEFSM [PPFIA4] | 2.24 ± 0.22 | 2.17 ± 0.46 |  |  |
| GRSSLTACSLPLCACLLGQKMLRH [PXN] | 2.32 ± 0.28 | 2.19 ± 0.16 |  |  |
| GRTPLIKLSPKKTWEGFIGGFFAT [CDS2] | 1.91 ± 0.24 | 2.09 ± 0.55 |  |  |
| GSAPFLFLSLACARGSIVATYIFI [SPNS1] | 3.15 ± 0.53 | 2.9 ± 0.46 |  |  |
| GSAYLFVESSLDKVVLSDAYAHPQ [TRADD] | 2.22 ± 0.35 | 2.37 ± 0.54 |  |  |
| GSFNGSEKETMQFLNDRLANYLEK [KRT36] | 3.38 ± 0.28 | 3.58 ± 0.3 |  |  |
| GSKQYSAAIAFTLALFSHLVNHVN [SMG5] | 3.39 ± 0.34 | 3.14 ± 0.43 |  |  |
| GSYTVQSELGDYDPDECGSDYISE [EPB41L3] | 4.83 ± 0.48 | 5.2 ± 0.22 |  |  |

| Sequence | protein stability index [1] | protein stability index [2] | protein stability index (treatment: DMSO, c terminus: native) | protein stability index (treatment: MLN4924 1 uM, 8 h, c terminus: native) |
| --- | --- | --- | --- | --- |
| GTDLPLSEIPRGVRVALDYEAGQV [TRIM15] | 4.33 ± 0.25 | 4.46 ± 0.22 |  |  |
| GTDVTRCICGFTHDDGYMICCDKC [KMT2E] | 5 ± 0.2 | 5.07 ± 0.12 |  |  |
| GTGRSAKEQVLRKGTENLQRAQAE [FCHSD1] | 5.09 ± 0.19 | 5.02 ± 0.4 |  |  |
| GTIFIRNVLLFKKQNPGKFCLLSC [RETREG3] | 2.7 ± 0.6 | 2.89 ± 0.34 |  |  |
| GTLDCISMALTCTFNRWGTLLAVG [RBBP5] | 3.2 ± 0.3 | 3.24 ± 0.59 |  |  |
| GVDWEHIRERPAAIPIEIKSIDDT [STK38L] | 4.68 ± 0.25 | 4.99 ± 0.27 |  |  |
| GWPHEDAAQFTDFLIPMLEMVPEK [SRPK2] | 3.83 ± 0.26 | 4.01 ± 0.1 |  |  |
| GYSIKVFDFERSGLQHAPEPDAAD [SMAD6] | 4.26 ± 0.37 | 4 ± 0.17 |  |  |
| HARLSDIWAKTPPITRKAAQLYTL [DHCR7] | 2.29 ± 0.22 | 2.3 ± 0.29 |  |  |
| HASKCEFLANLHITALLNVSRRTS [DUSP5] | 2.2 ± 0.2 | 2.33 ± 0.22 |  |  |
| HDQCKCENLIMFQNLANEEVRKLT [MATN2] | 3.13 ± 0.25 | 3.58 ± 0.28 |  |  |
| HEEEVKGLQAQIASSGLTVEVDAP [KRT18] | 5.51 ± 0.23 | 5.45 ± 0.27 |  |  |
| HEMVAHRHRQEVLCKEMVPLAEQT [ZSCAN9] | 4.42 ± 0.2 | 4.41 ± 0.19 |  |  |
| HGAVTVGGTSVGSLGVPGSVGGVP [ZBTB22] | 4.02 ± 0.61 | 4.06 ± 0.37 |  |  |
| HGNLSEEAAKQMRSRGKVLKTKDG [CPOX] | 5.22 ± 0.2 | 5.41 ± 0.2 |  |  |
| HGPDLYPKFKKWCDDYFFIAHRGE [CPOX] | 2 ± 0.15 | 2.1 ± 0.27 |  |  |
| HGSGSSLVVIQQPSLDSRQRLDYE [SPRY1] | 4.12 ± 0.28 | 3.99 ± 0.31 |  |  |
| HHKTYDPTYSDFCQFRPPVRVNDG [VDR] | 3.38 ± 0.29 | 3.28 ± 0.16 |  |  |
| HIDPEIQDGSPTTSRRPSGTGTGP [PDLIM4] | 5.26 ± 0.26 | 5.42 ± 0.26 |  |  |
| HIIHVWEETGSRFHNCLIQLYCEK [VPS39] | 2.44 ± 0.4 | 2.37 ± 0.36 |  |  |
| HNYKEMRQLMKVVNEMCPNITRIY [CPXM2] | 2.11 ± 0.37 | 2.17 ± 0.31 |  |  |
| HPPSHWPLIKATVGLIRNLALCPA [CTNNB1] | 2.65 ± 0.53 | 2.81 ± 0.88 |  |  |

| Sequence | protein stability index [1] | protein stability index [2] | protein stability index (treatment: DMSO, c terminus: native) | protein stability index (treatment: MLN4924 1 uM, 8 h, c terminus: native) |
| --- | --- | --- | --- | --- |
| HPVPLSFEPVKSFFKGLVEAVEST [TRIM14] | 2.6 ± 0.41 | 2.26 ± 0.42 |  |  |
| HPVTIGGKIVGSLCAIAGVLTIAL [KCNA3] | 2.6 ± 0.42 | 2.05 ± 0.28 |  |  |
| HQLLGLFPSTSYNARLQAMWGQSL [TNXB] | 2.11 ± 0.35 | 2.08 ± 0.23 |  |  |
| HSYNVTQRRPRVLSCLHSVCEQCL [RNF208] | 2.87 ± 0.17 | 3.16 ± 0.33 |  |  |
| HTETGEEVLRMCVAVKKKLQLYFW [VPS39] | 2.8 ± 0.85 | 2.82 ± 0.33 |  |  |
| HTVGVLFNNGAHMSLLPDKKTVHY [PLK2] | 2.65 ± 0.33 | 2.66 ± 0.22 |  |  |
| HVFSELWDLSEAWMQANYDPLSDS [ELOA2] | 2.6 ± 0.32 | 2.63 ± 0.31 |  |  |
| IALFTARLHHPHKSVQHVVLQALF [PTPN9] | 2.59 ± 0.54 | 3.13 ± 0.72 |  |  |
| IATLRVALPSVMRFCCCVAVIYLG [MCOLN1] | 3.29 ± 0.55 | 3.15 ± 0.21 |  |  |
| ICTNLCEALQNFFSLACSLMGPSR [M1AP] | 2.33 ± 0.28 | 2.26 ± 0.1 |  |  |
| IDKVRFLEQQNQVLETKWELLQQL [KRT71] | 2.74 ± 0.1 | 2.73 ± 0.27 |  |  |
| IDREVDLMMRGVKHHNLEGLRKRI [IQUB] | 3.29 ± 0.32 | 3.62 ± 0.27 |  |  |
| IEDDIRPEKQKRKPGLRRSPIKKV [MYBL2] | 5.01 ± 0.25 | 4.83 ± 0.23 |  |  |
| IEDLEVTCTWKLPTLAKFSPYLGQ [PRAME] | 2.62 ± 0.32 | 2 ± 0.58 |  |  |
| IEDTPLVPVSFIFIFTFVKKKKIG [PCDHGA10] | 2.29 ± 0.55 | 3.12 ± 0.37 |  |  |
| IEELCQKREELCRQIQEEEDEKQR [SSNA1] | 5.43 ± 0.1 | 5.52 ± 0.12 |  |  |
| IEPYITNFFNQVLMLGKTSISDLS [PDS5B] | 3.01 ± 0.42 | 2.91 ± 0.45 |  |  |
| IETLIRDMLLSGSSFNWPYMAIQ [NR2F2] |  |  | 3.02 ± 1.2 | 2.64 ± 0.41 |
| IFEETLNILIYETPRGPDPALLEA [KCTD13] | 2.47 ± 0.51 | 2.63 ± 0.28 |  |  |
| IFFMAAFAFSNGYLASLCMCFGPK [SLC29A1] | 2.42 ± 0.38 | 2.52 ± 0.34 |  |  |
| IFSGAASLGYGTNVAATGISQYED [APBB1IP] | 3.83 ± 0.24 | 3.67 ± 0.16 |  |  |
